Positions of bridges follow the written chain, without caps; N, C: chain ends. No end group written: not given here. *: point of attachment. NHNH2 = NN*
What follows are substances tested against T1, native human factor VIII (nhfVIII) (Homo sapiens, UniProt P00451) (assay: Comparative batch binding and elution of nhfVIII with immobilized polypeptide ligands). Details: batch procedure.
T1 construct: native human factor VIII (nhfVIII); purchased American Diagnostica, Inc. (Greenwich, Conn.) #408 nat
T1 sequence (P00451 20-1332 limits assumed): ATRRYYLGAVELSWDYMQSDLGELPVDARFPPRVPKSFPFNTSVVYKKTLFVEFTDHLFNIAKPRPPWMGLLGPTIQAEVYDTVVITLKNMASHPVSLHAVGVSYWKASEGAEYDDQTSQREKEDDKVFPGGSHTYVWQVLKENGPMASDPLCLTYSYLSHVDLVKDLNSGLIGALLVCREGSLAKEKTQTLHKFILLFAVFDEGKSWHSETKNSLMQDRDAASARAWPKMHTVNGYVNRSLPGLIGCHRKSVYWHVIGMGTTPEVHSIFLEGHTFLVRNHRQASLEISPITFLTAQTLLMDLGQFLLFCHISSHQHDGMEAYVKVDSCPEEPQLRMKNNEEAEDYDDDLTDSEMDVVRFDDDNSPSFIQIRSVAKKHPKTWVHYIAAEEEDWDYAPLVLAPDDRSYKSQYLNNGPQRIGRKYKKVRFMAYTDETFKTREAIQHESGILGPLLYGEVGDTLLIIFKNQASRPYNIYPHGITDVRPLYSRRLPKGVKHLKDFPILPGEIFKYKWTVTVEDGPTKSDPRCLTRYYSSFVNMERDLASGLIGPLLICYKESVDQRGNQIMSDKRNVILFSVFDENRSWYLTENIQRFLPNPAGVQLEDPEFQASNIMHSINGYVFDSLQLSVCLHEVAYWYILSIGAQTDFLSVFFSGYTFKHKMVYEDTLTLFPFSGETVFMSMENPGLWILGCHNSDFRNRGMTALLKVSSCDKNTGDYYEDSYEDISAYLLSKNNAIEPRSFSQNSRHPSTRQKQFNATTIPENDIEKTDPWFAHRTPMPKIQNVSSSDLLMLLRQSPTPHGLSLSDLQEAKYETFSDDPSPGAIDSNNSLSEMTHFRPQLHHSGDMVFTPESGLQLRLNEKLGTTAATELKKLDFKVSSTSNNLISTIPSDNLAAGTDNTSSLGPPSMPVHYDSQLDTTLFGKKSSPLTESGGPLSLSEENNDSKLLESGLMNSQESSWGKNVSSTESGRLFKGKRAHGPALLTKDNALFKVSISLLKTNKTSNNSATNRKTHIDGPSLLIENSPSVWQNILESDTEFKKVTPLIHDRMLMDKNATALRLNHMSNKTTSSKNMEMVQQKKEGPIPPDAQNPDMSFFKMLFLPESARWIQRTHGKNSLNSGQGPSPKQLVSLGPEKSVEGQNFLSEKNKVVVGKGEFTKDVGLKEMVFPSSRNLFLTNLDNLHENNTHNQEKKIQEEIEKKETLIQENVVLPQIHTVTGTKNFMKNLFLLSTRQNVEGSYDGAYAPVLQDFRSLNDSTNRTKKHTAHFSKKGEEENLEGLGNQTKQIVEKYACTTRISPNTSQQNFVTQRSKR
T1 sequence (P00451 1668-2351 limits assumed): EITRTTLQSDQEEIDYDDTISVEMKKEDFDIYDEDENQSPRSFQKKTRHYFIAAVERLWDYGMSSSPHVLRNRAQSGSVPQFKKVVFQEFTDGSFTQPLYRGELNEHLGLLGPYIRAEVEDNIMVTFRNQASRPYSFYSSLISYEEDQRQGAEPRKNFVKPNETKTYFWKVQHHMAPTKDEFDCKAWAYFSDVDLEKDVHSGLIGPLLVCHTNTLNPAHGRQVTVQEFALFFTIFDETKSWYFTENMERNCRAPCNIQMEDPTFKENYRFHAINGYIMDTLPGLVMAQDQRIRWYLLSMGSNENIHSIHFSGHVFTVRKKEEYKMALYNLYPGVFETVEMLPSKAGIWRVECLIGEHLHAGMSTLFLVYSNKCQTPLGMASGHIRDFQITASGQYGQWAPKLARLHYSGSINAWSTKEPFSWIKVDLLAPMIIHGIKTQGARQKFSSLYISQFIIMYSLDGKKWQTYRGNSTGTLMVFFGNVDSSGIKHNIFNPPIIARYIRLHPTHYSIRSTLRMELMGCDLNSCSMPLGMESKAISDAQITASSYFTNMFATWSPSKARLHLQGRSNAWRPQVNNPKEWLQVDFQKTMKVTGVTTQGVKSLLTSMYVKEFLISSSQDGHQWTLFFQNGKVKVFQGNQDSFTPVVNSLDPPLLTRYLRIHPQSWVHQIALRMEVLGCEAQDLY
Procedure: For these experiments, nhfVIII was obtained from American Diagnostica, Inc. (Greenwich, Conn.; product #408 nat) in the form of a lyophilized powder containing stabilizing agents. The nhfVIII was reconstituted according to the manufacturer's instructions in a reconstituting buffer (72 mM NH4OAc, pH 6.3, 360 mM NaCl, 0.04% Tween 80 (Buffer 1).
A commercial ELISA kit (IMUBIND fVIII ELISA kit, Product #884, American, Inc., Greenwich, Conn.) developed to detect factor VIII was used according to the manufacturer's specifications in order to detect both the REFACTO® and the nhfVIII targets. The kit employs a sandwich ELISA assay in which the target is captured by an immobilized monoclonal antibody and the captured target is detected with a second monoclonal antibody-horseradish peroxidase (HRP) conjugate. Addition of the peroxidase substrate and its subsequent reaction with the HRP produces a blue color (detected at 630 nm) which changes to yellow (detected at 450 nm) on addition of the 0.5N sulfuric acid stop solution. Color response is calibrated with factor VIII standards provided by the manufacturer.
Following the pH 2 washes, the beads were washed once in PBS containing 0.05% azide and stored at 4° C.
A sample of nhfVIII was diluted to a final concentration of 100 U/ml by addition of 2.32 ml H2O, 180 μl 1M NH4OAc, pH 6.3 (to 72 mM), and 1 μl Tween 80 (to 0.04%). REFACTO® stock solution was diluted to 100 U/ml in a modified Buffer 1, in which the NaCl concentration was reduced from […] to 330 mM.
Immobilized peptides were tested for binding to nhFVIII in comparison with REFACTO®. […] Next, nhfVIII and REFACTO® solutions were mixed with regenerated affinity beads bearing the CS-454, CS-456, and CS-458 ligands in a comparative batch purification procedure.

Substance | binding and release of nhfVIII compared with a factor VIII-like polypeptide (in words)
AEGTGDFCWVFAFDHCHDPGPEGGGS-NHNH2 (disulfide 8-16 (inferred)) [CS-458] | bind and release nhfVIII under similar conditions and with similar yields
AEGTGDFGCSWLFPCPFDPGPEGGGS-NHNH2 (disulfide 9-15 (inferred)) [CS-456] | bind and release nhfVIII under similar conditions and with similar yields
AEGTGDHLCGAWFRPCDADPGPEGGGS-NHNH2 (disulfide 9-16 (inferred)) [CS-454] | bind and release nhfVIII under similar conditions and with similar yields

Source: patent publication US9156883B2, “Binding molecules for human factor VIII and factor VIII-like proteins” (DYAX CORP., priority 1999, dated 2015)
